Laboratory results: US20180312587A1 (ADURO BIOTECH HOLDINGS EUROPE B V, published 2018)
Blank lines part the entries; values can stand above or below the binder they belong to.

Assays:
[1] = biological target: T1, human SIRPβ1 (human, UniProt O00241 30-398); assay: CELISA, CHO-K1 transfectants; average of two experiments
T1 construct: also called hSIRPβ1
Procedure: (§1) The binding specificity of antibody hSIRPα.50A to hSIRPα was compared antibody KWAR23 (Canadian Patent 2939293 A1), in a CELISA format. CHO-K1 cells were transiently transfected with hSIRPαV1, hSIRPαV2, hSIRPβ1, and hSIRPγ (GenBank accession: NM_018556.3) (SEQ ID NO: 39) cDNAs. Subsequently, hSIRPα binding was assessed by CELISA using CHO-K1.hSIRPαV1, CHO-K1.hSIRPαV2, CHO-K1.hSIRPβ1, and CHO-K1.hSIRPγ cells. Detection of bound antibody was performed with goat-anti-mouse IgG-HRP (Southern Biotech) for mouse antibodies including hSIRPα.50A and control antibodies or, alternatively, with goat-anti-human IgG-HRP conjugate (Jackson Immuno Research) for the KWAR23 antibody. KWAR23 (SEQ ID NO: 130; SEQ ID NO: 131) was expressed as a chimeric human IgG4 kappa antibody in CHO cells. As shown in FIG. 2 and the following Table 9, KWAR23 antibody cross-reacts with all members of the SIRP receptor family tested: it binds to hSIRPαV1, hSIRPαV2, hSIRPβ1, and hSIRPγ.

[2] = biological target: T2, hSIRPβ1 transcript variant 3/hSIRPβL (human, UniProt Q5TFQ8 30-398); assay: as above
T2 construct: also called human SIRPβL
Procedure: The binding specificity of antibodies hSIRPα.40A and hSIRPα.50A to hSIRPα were compared in a CELISA format. In short, CHO-K1 cells were transiently transfected with hSIRPαV1, hSIRPαV2, hSIRPβ1, hSIRPβL, and hSIRPγ cDNAs. Subsequently, hSIRPα binding was assessed by CELISA using CHO-K1.hSIRPαV1, CHO-K1.hSIRPαV2, CHO-K1.hSIRPβ1, CHO-K1.hSIRPβL, and CHO-K1.hSIRPγ cells. Detection of bound antibody was done with goat-anti-mouse IgG-HRP (Southern Biotech).

[3] = biological target: T3, hSIRPαV4 (NA11832_V4) (human, UniProt P78324 31-504); assay: as above
T3 construct: also called human SIRPαV4
T3 chain: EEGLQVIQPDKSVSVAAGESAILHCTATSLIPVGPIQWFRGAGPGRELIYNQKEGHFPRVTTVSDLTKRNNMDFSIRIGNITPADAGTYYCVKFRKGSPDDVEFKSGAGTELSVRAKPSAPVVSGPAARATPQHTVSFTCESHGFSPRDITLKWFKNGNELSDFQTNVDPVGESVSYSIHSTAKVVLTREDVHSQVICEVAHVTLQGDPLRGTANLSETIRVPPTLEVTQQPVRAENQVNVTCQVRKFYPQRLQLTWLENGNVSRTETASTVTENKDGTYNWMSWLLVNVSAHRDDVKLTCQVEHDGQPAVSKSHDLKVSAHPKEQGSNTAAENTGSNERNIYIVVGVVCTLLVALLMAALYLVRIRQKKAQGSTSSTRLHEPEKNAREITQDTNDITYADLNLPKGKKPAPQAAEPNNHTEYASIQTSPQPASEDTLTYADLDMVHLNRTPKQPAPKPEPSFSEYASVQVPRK
Procedure: as §1
In addition, the specificity of hSIRPα.50A for all known of hSIRPα alleles (allelic variants as described by Takenaka et al., 2007, Nat Immunol. 8:1313-1323) was further investigated by CELISA using the same strategy as above. To this end, hSIRPα.50A binding was assessed using CHO-K1 cells that were transiently transfected with cDNAs encoding full length hSIRPαV1, hSIRPαV2, hSIRPαV3 (NA07056_V3) (SEQ ID NO: 43), hSIRPαV4 (NA11832_V4) (SEQ ID NO: 45), hSIRPαV5 (NA18502_V5) (SEQ ID NO: 47), hSIRPαV6 (NA18507_V6) (SEQ ID NO: 49), hSIRPαV8 (NA18570_V8) (SEQ ID NO: 51), and hSIRPαV9 (NA18943_V9) (SEQ ID NO: 53).

[4] = biological target: T4, hSIRPα expressed on primary human cells (human, UniProt P78324 31-504); assay: flow cytometry on CD14+ enriched monocytes, human donor 1, AF647 goat-anti-mouse IgG
T4 construct: whole, on cells; also called hSIRPα on primary human CD14+ monocytes; on primary human granulocytes
Procedure: Next, the binding of hSIRPα.40A to hSIRPα expressed on primary human CD14⁺ monocytes was investigated. In addition, the ability of hSIRPα.40A to block the interaction between hSIRPα and recombinant hCD47/Fc-protein was assessed. For this purpose, CD14+ monocytes were isolated from Ficoll-purified human peripheral blood mononuclear cells (PBMCs) using RosetteSep human monocyte enrichment cocktail (Stemcell). The percentage of monocytes present after the enrichment was determined by flow cytometry on the FACSVerse (BD Biosciences) based on CD14 staining using an APC-Cy7-conjugated mouse-anti-human CD14 detection antibody (BD Biosciences). […] After this labeling procedure, cells were washed two times, resuspended in PBS/1% BSA containing 0.1 μg/mL DAPI (BioLegend), and analysed by flow cytometry on the FACSVerse (BD Biosciences). Data were processed and analysed with FlowJo V10 software (FlowJo, LLC).
To assess the blocking ability of hSIRPα.40A, CD14+ enriched monocytes cells were seeded in 96-well round bottomed tissue culture plates and incubated for 45 minutes with FcR Blocking Reagent (Miltenyi Biotec) and hSIRPα.40A antibody (20 μg/mL and dilutions thereof) in PBS/1% BSA at 4° C. […] After this labeling procedure, cells were washed two times, resuspended in PBS/1% BSA containing 0.1 μg/mL DAPI (BioLegend), and analysed by flow cytometry on the FACSVerse (BD Biosciences). […]

T2 sequence (Q5TFQ8 30-398 limits assumed, change not shown): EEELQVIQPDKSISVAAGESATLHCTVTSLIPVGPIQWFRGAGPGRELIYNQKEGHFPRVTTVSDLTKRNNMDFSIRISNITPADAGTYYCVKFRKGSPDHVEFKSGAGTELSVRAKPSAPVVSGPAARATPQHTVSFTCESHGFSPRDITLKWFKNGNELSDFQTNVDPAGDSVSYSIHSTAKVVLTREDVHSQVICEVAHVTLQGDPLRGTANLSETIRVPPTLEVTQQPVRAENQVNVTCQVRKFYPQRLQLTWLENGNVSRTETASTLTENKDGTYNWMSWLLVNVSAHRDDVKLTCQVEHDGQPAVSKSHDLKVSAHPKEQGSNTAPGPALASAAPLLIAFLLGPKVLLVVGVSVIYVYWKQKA
T1 sequence (O00241 30-398 limits assumed): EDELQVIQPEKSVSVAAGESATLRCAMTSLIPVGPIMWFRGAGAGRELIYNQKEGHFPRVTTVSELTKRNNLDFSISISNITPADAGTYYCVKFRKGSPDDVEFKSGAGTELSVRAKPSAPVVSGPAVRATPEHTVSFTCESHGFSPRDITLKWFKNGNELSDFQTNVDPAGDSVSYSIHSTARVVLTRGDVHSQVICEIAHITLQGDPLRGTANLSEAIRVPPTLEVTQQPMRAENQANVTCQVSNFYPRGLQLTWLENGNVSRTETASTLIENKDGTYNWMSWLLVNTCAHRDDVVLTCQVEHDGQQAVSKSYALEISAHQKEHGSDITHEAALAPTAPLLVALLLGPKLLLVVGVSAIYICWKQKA
T4 sequence (P78324 31-504): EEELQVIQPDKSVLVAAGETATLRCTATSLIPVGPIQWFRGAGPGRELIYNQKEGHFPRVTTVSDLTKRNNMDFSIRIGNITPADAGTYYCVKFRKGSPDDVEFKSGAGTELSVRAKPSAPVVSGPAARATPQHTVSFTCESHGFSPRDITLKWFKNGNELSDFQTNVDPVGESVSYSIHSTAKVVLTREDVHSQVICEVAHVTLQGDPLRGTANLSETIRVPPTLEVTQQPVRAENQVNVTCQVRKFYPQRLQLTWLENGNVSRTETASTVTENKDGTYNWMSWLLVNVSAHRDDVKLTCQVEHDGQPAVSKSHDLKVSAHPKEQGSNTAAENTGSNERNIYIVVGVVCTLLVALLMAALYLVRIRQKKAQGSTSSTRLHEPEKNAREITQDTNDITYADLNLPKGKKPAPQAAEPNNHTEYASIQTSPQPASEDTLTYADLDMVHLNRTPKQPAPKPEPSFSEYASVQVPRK

EC50 [1]: 0.161 nM
B1: KWAR23 (antibody, V domains shown)
VH: EVQLQQSGAELVKPGASVKLSCTASGFNIKDYYIHWVQQRTEQGLEWIGRIDPEDGETKYAPKFQDKATITADTSSNTAYLHLSSLTSEDTAVYYCARWGAYWGQGTLVTVSS
VL: QIVLTQSPAIMSASPGEKVTLTCSASSSVSSSYLYWYQQKPGSSPKLWIYSTSNLASGVPARFSGSGSGTSYSLTISSMEAEDAASYFCHQWSSYPRTFGAGTKLELK

EC50 [2]: 0.632 nM
EC50 [3]: 0.824 nM
B2: hSIRPα.50A (antibody, V domains shown)
VH: QVQLQQSGPELVKPGASVRISCKASGFTFTNYYIHWVKQRPGQGLEWIGWIYPGNVNTKYNEKFKAKATLTADKSSTTAYMQLSSLASEDSAVYFCARPTIIATDFDVWGAGTTVTVSS
VL: DIVMTQSHKFMSTSVGDRVNITCKASQGVGTAVGWYQQKPGQSPRLLIYWASTRHTGVPDRFTGSGSGTDFSLAISNVQSEDLADYFCQQYSTYPFTFGGGTNLEIK
notes: light chain constant domain not tied; also called mouse hSIRPα.50A; hSIRPα.50A.mIgG1

EC50 (read off the curve) [4]: ~1 nM
B3: hSIRPα.40A (antibody, mouse IgG1, kappa, V domains shown)
VH: EVQFQQSGTVLARPGTSVKMSCKASGSTFTSYWMHWVKQGPGQGLQWIGAIYPVNNDTTYNQKFKGKAELTVVTSTSTAYMEVSSLTNEDSAVYYCTRSFYYSLDAAWFVYWGQGTLVTVSA
VL: DIQMTQSPSSLSASLGERVSLTCRASQDIGSRLNWLQQEPDGTIKRLIYATSSLDSGVPKRFSGSRSGSDYSLTISGLESEDFVDYYCLQYASSPFTFGGGTKLEINR
notes: mouse antibody, full chains without signal peptide; also called mouse hSIRPα.40A
